Reference: paper PMC9832913

Biological target: human A2A adenosine receptor (A2AAR), residues 1-316, N154Q (human) (UniProt P29274)
Test: SEC

Chain of UniProt P29274 (P29274 1-316 N154Q): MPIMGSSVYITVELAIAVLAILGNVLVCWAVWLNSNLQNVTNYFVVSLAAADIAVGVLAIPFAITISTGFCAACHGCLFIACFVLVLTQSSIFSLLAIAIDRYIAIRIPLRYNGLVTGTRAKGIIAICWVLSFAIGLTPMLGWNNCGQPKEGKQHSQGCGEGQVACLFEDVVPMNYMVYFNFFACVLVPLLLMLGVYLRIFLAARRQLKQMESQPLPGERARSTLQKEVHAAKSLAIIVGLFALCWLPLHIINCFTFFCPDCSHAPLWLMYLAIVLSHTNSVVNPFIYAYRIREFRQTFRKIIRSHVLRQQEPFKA

Substance: mini-Gs, an engineered variant of the Gs protein α-subunit
- percent of the receptor in complex: 95%
